Results reported in WO2012092539A2 (dated 2012).
Each block holds one binder with its values, some of them ahead of it.

Molecular target: DLL4 protein (R&D Systems) (Homo sapiens (Human), UniProt Q9NR61 27-524)
Experiment: cell-based or functional assay

Chain of DLL4 protein (R&D Systems) (Q9NR61 27-524 limits assumed): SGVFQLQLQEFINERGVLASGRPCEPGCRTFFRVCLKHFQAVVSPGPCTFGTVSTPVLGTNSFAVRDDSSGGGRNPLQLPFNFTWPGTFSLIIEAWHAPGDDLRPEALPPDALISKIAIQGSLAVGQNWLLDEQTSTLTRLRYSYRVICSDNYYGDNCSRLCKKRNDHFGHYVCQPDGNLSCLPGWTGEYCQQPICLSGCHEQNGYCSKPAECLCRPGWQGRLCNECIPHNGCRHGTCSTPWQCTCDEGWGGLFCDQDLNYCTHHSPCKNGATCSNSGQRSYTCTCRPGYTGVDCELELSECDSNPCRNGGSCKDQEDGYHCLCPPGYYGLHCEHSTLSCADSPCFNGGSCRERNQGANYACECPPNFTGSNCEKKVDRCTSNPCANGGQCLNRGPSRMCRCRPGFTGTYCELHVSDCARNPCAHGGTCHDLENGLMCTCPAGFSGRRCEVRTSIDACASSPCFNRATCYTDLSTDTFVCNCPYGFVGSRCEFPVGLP

EC50, HUVEC proliferation on DLL4-coated wells (CellTiter Glo, day 3): 60 nM
B1: BA1 (antibody, V domains shown)
VH: QVQLVQSGAEVKKPGASVKISCKASGYSFTAYYIHWVKQAPGQGLEWIGYISSYNGATNYNQKFKGRVTFTTDTSTSTAYMELRSLRSDDTAVYYCARDYDYDVGMDYWGQGTLVTVSS
VL: DIVMTQSPDSLAVSLGERATISCRASESVDNYGISFMKWFQQKPGQPPKLLIYAASNQGSGVPDRFSGSGSGTDFTLTISSLQAEDVAVYYCQQSKEVPWTFGGGTKVEIKR

EC50, HES1 luciferase reporter in HELA cells on DLL4-coated wells: 21.9 nM
B2: 12.55 (antibody, human IgG2, V domains shown)
VH: EVQLVETGGGLVQPGGSLRLSCAASGFTFSDYAMSWVRQTPGKGLEWVSTISGSGGDTFYADSVKGRFTISRDNSKNTLYLQVNSLRAEDTAVYYCAKDKNRGAYADAFDIWGQGTMVTVSS
VL: QAVLTQPASLSASPGASASLTCTLRSDINVATYRIYWYKQKPGSPPQYLLTYKSDSDKQQGSGVPSRFSGSKDSSANAGILLISGLQSDDEADYHCMVWHKSAPIFGGGTKVTVLG

EC50, HUVEC proliferation on DLL4-coated wells (CellTiter Glo, day 3): 3.9 nM
B3: 12.3 1C1 (antibody, V domains shown)
VH: DVQLQESGPDLVKPSQSLSLTCTVTDHSITSGYSWHWIRQFPGNKLEWMAYIHYSGYTHYNPSLKSRISITRDTSKNQFFLHLNSVTTEDSATFYCAGSDYSANEGAMAYWGQGTSATVSS
VL: DIVLTQSPASLAVSLGQRATISCRASESVDSFGNSFMHWYQQKAGQPPKLLIYRTSNLQSGIPARFSGSGSRTDFTLTINPVEADDVATYYCQQSNEDPWTFGGGTKLEIKR

EC50, HUVEC proliferation on DLL4-coated wells (CellTiter Glo, day 3): 45 nM
B4: BA2 (antibody, V domains shown)
VH: EVQLVESGGGLVQPGGSLRLSCAASGFTFTDNWISWVRQAPGKGLEWVGYISPNSGFTYYADSVKGRFTISADTSKNTAYLQMNSLRAEDTAVYYCARDNFGGYFDYWGQGTLVTVSS
VL: DIQMTQSPSSLSASVGDRVTITCRASQDVSTAVAWYQQKPGKAPKLLIYSASFLYSGVPSRFSGSGSGTDFTLTISSLQPEDFATYYCQQSYTGTVTFGQGTKVEIKR
